The values below come from patent publication US20090258005A1 (TRUBION PHARMACEUTICALS, published 2009).

T1: L1-CR1 (Her054P)
T1 construct: also called 1.0
T1 chain: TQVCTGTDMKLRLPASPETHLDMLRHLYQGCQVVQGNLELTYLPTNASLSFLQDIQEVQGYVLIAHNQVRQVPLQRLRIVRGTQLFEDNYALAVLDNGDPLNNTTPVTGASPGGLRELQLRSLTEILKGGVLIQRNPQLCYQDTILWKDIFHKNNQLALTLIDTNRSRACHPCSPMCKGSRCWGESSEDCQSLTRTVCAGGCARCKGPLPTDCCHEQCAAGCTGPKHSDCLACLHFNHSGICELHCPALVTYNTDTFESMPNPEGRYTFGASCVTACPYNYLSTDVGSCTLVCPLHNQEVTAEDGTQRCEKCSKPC

B1: S1R2A_CS_1D3 (scFv, V domains shown)
VH: EVQLVQSGAEVKKPGASVKVSCKASGYSFTAFYIHWVRQAPGQGLEYLGWIDPNTGATKYAQRFQGRVIMTWDTSITTATMELSRLTSDDSAVYYCVRDLREWGYELSVEYWGRGTLVTVSS
VL: not shown
notes: scFv, on phage in the screen
B2: S1R3A1_BMV_1F3 (scFv, V domains shown)
VH: EVQLVESGEGLVKPGGSLRLSCTASGFTFRSYSLNWVRQAPGQGLEWVSSISSTSTYIYYADSVKGRFTISRDDAKNTLYLQMNSLRAEDTAAYYCVRLGSGGGYFPDYWGRGTLVTVSS
VL: SSELTQDPAVSVALGQTVRITCQGDSLRSYYASWYQQKPGQAPVLVIYGKNNRPSGIPDRFSGSSSGNTASLTITGAQAEDEADYYCNSRDSSGNHVVFGGGTKLTVL
notes: scFv, soluble from bacterial periplasm in the screen; also called Her2_S1R3A1_BMV_1F3
B3: S1R3B1_BMV_1H5 (scFv, V domains shown)
VH: QVQLQESGGGVVQPGGSLRLSCAASGFTFSGYGMHWVRQAPGKGLEWVASVRNDGSNTYYTDSVKDRFTISRDNTKNTLYLQMNSLRAEDTAVYYCAKSRRVMYGTSYYFDYWGRGTLVTVSS
VL: B2 VL
notes: scFv, soluble from bacterial periplasm in the screen; also called Her2_S1R3B1_BMV_1H5
B4: S1R3B1_BMV_1H9 (scFv, V domains shown)
VH: QVQLQESGAGLVKPSGTLSLTCAVSGGSISSGNWWSWVRQPPGKGLEWIGEISHSGSTNYNPSLKSRVTISVDKSKNQFSLNLSSVTAADTAVYYCARVRGTVGDTRGPDYWGQGTLVTVSS
VL: B2 VL
notes: scFv, soluble from bacterial periplasm in the screen; also called Her2_S1R3B1_BMV_1H9
B5: S1R3B1_BMV_1A1 (scFv, V domains shown)
VH: EVQLVQSGAEVKEPGASVKVSCKASGYDFSNYGFSWVRQAPGQGLEWMGWISSYNGYTNYAQRLQGRVTMTTDTSTSTAYMELRSLRSDDTAVYYCARDRGLGNWYFDLWGQGTLVTVSS
VL: QSVLTQPASVSGSPGQSITISCTGTSSDVGGYNYVSWYQQHPGKAPKLMIYEGSKRPSGVSNRFSGSKSGNTASLTISGLQAEDEADYYCSSYTTRSTRVFGGGTKLTVL
notes: scFv, soluble from bacterial periplasm in the screen; also called Her2_S1R3B1_BMV_1A1
B6: S1R3B1_BMV_1G11 (scFv, V domains shown)
VH: QVQLVQSGGGLVQPGGSLRLSCAASGFTFSTYAMSWARQAPGKGLEWVSSISGDGGRILDADSAKGRFTISRDNSKNTLYLQMNGLRVEDTALYYCARADGNYWGRGTMVTVSS
VL: B5 VL
notes: scFv, soluble from bacterial periplasm in the screen; also called Her2_S1R3B1_BMV_1G11
B7: S1R3C1_CS_1D3 (scFv, V domains shown)
VH: QVQLQESGPGLVKPSQTLSLTCGISGDSVSSNSAAWNWIRQSPTRGLEWLGRTYYRSSWYHNYAPSMNSRLTIIADTSKNQFSLQLNSVTPEDTAVYYCASGWAFDVWGRGTLVTVSS
VL: QSVLTQPPSASGSPGQSVTISCTGTSSDVGAYDFVSWYQQHPGKAPKLMIYEVNKRPSGVPDRFSGSKSGNTASLTVSGLQAEDEADYYCSSYAGSKNLLFGGGTKLTVL
notes: scFv, on phage in the screen; also called Her2_S1R3C1_CS_1D3
B8: S1R3B2_BMV_1G2 (scFv, V domains shown)
VH: QVQLVQSGAEVKKPGSSVKVSCKASGYTFTSYGISWVRQAPGQGLEWMGWISAYNGNTNYAQKLQGRVTMTTDTSTSTAYMELRSLRSDDTAVYYCARVPGVSGSYPDYYYMDVWGKGTLVTVSS
VL: DIQMTQSPSTLSASIGDRVTITCRASEGIYHWLAWYQQKPGKAPKLLIYKASSLASGAPSRFSGSGSGTDFTLTISSLQPDDFATYYCQQYSNYPLTFGGGTKLEIK
notes: scFv, on phage in the screen; also called Her2_S1R3B2_BMV_1G2
B9: S1R3A1_DP47_1A6 (scFv, V domains shown)
VH: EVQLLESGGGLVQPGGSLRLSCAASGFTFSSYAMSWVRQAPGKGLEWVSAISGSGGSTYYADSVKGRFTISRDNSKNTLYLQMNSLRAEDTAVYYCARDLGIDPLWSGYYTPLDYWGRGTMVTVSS
VL: HVILTQPPSASGTPGQRVTISCSGSSSNIGSNSVSWYQQLPGTAPKLLMYTNNQRPSGVPDRFSGSKSGTSASLAISGLQSEDEADYYCATWDASLNTWVFGGGTKVTVL
notes: scFv, soluble from bacterial periplasm in the screen; also called Her2_S1R3A1_DP47_1A6
B10: S1R3A1_CS_1B10 (scFv, V domains shown)
VH: EVQLVQSGAEVKKPGASVRVSCKGSGNTFTGHYIHWVRQAPGQGLEWLGWIDPNTGDIQYSENFKGSVTLTRDPSINSVFMDLIRLTSDDTAMYYCAREGAGLANYYYYGLDVWGRGTMVTVSS
VL: QTVVLQEPSFSVSPGGTVTLTCGLNFGSVSTAYYPSWYQQTPGQAPRTLIYGTNIRSSGVPDRFSGSIVGNKAALTITGAQTEDESDYYCALYMGSGMLFGGGTKVTVL
notes: scFv, soluble from bacterial periplasm in the screen; also called Her2_S1R3A1_CS_1B10
B11: S1R3A1_CS_1B9 (scFv, V domains shown)
VH: KVQLVQSGTEVKKPGESLKISCQGSGYRFSSDWIAWVRQMPGKGLEWMGIVYPGDSDTRYSPSFQGQVTISADKSISTAYLQWSGLKASDTAKYYCARVQQAVGAKGYAMDVWGKGTLVTVSS
VL: QTVVIQEPSFSVSPGGTVTLTCGLSSGSVSTSYYPSWYRQTPGQAPHTLIHNTKIRSSGVPDRFSGSILGNNAALTITGAQADDESDYYCLLYMGSGIYVFGGGTKLTVL
notes: scFv, soluble from bacterial periplasm in the screen; also called Her2_S1R3A1_CS_1B9

The target of one experiment is T1, L1-CR1 (Her054P). Briefly: ELISA, soluble scFv on L1-CR1.
Protocol: (§1) Various Her2-Fc proteins (e.g., Her008P, Her017P, Her018P, etc.) or a negative control murine IgG2a protein were coated overnight at 4° C. on 96-well Nunc Maxisorp at a concentration of 1 ug/ml in PBS. Alternatively, pre-blocked streptavidin-coated plates (Greiner) were coated with biotinylated Her2-Fc proteins for 1 hour at room temperature at a concentration of 1 ug/ml in block buffer (3% skim milk/1% BSA/PBS). Plates were washed three times using PBS and blocked for 1 hour at room temperature in 3% skim milk/1% BSA/PBS. Phage or peripreps were prepared as described above and were blocked for 1 hour at room temperature in an equal volume of 6% skim milk/1% BSA/PBS. Blocked plates were washed five times with PBS and 50 μl/well of blocked phage or periprep were transferred to the appropriate plates and incubated for 1 hour at room temperature. […] Plates were incubated for a further hour at room temperature and washed seven times with PBS. Signal was developed using TMB, the reaction stopped with H₂SO₄ and the absorbance read at 450 nm on an Envision plate reader (Perkin Elmer).
For B1, the binding result is recorded as “no binding”.

As to B2, the binding result was “no binding”.

Take B3: the binding result is recorded as “no binding”.

For B4, the binding result is given as “no binding”.

In the case of B5, the binding result is reported as “no binding”.

Take B6: the binding result is given as “no binding”.

Take B7: the binding result was “no binding”.

As to B8, the binding result is given as “no binding”.

B9: the binding result was “no binding”.

In a further experiment the target is T2, Her008P, full-length extracellular domain (ECD) of Her2 expressed with a mIgG2a Fc tail (human; murine, UniProt P04626 23-652).
T2 construct: also called SIIS; SIIS (Dimer); not shown: murine IgG2a Fc tail
Put plainly: ELISA, soluble scFv on ECD.
Take B2: the binding result is “binds”.

For the molecule B3, the binding result was “binds”.

For B4, the binding result is on record as “binds”.

For the molecule B5, the binding result is recorded as “binds”.

As to B6, the binding result is listed as “binds”.

Regarding B7, the binding result was “binds”.

As for B8, the binding result is listed as “binds”.

Turning to B10, the binding result is reported as “binds”.

With B9, the binding result is “binds”.

On to B11, for which the binding result is listed as “binds”.

A further experiment deals with T3, ECD region of Her2 (human, UniProt P04626 23-652).
T3 construct: extracellular domain; Generic target of the scFv screen; also called extracellular domain (ECD) of Her2 (ErbB2)
Briefly: screening after three rounds of phage selection, soluble periplasmic scFv.
For B2, the binding result is given as “binds”.

For B3, the binding result is on record as “binds”.

For B4, the binding result is given as “binds”.

As to B5, the binding result is listed as “binds”.

Regarding B6, the binding result was “binds”.

Take B10: the binding result is recorded as “binds”.

For B9, the binding result is listed as “binds”.

B11: the binding result is “binds”.

In a further experiment the target is T3, ECD region of Her2. Briefly: cell ELISA, phage scFv, CHO-ECD cells.
Protocol: 2×10⁴ CHOK1 cells/well were seeded in a 96-well tissue culture plate on Day 1 and incubated at 37° C./5% CO₂ for 2-4 days until a confluent monolayer was observed. Cells were washed five times with PBS (+ Ca/Mg ions) and blocked for 1 hour at room temperature with 3% skim milk/1% BSA/PBS (+ Ca/Mg ions). Phage or peripreps were prepared as described above and were blocked for 1 hour at room temperature in an equal volume of 6% skim milk/1% BSA/PBS (+ Ca/Mg ions). Blocked plates were washed five times with PBS (+ Ca/Mg ions) and 50 μl/well of blocked phage or periprep were transferred to the appropriate plates and incubated for 1 hour at room temperature. […] Plates were incubated for a further hour at room temperature and washed ten times with PBS (+ Ca/Mg ions). Signal was developed using TMB, the reaction stopped with H₂SO₄ and the absorbance read at 450 nm on an ENVISION plate reader (Perkin Elmer).
On to B7, for which the binding result is on record as “binds”.

For the molecule B8, the binding result is on record as “binds”.

For the next experiment, the target named is T4, Full length HER2 (human, UniProt P04626 23-1255).
T4 construct: Endogenous HER2 on SKBR3, BT474, 22rv1, MDA-MB-175, MDA-MB-453 and MDA-MB-361 cells; also called HER2 on the cell surface; ErbB2
Put plainly: cell ELISA, phage scFv, SKBR3 cells.
On to B1, for which the binding result is “binds”.

On to B7, for which the binding result is reported as “binds”.

In the case of B8, the binding result is listed as “binds”.

Another experiment addresses T5, EQR (Her017P).
T5 construct: also called HER2 EQR-Fc; HER2 EQR DIMER
Put plainly: ELISA, soluble scFv on EQR.
Protocol: as §1
On to B1, for which the binding result is on record as “no binding”.

B2: the binding result is “binds”.

Turning to B3, the binding result is “no binding”.

For B4, the binding result was “no binding”.

In the case of B5, the binding result is on record as “binds”.

For the molecule B6, the binding result was “no binding”.

Turning to B7, the binding result is given as “binds”.

On to B8, for which the binding result is recorded as “binds”.

Regarding B10, the binding result is “binds”.

B9: the binding result is reported as “binds”.

Take B11: the binding result is given as “binds”.

Another experiment has as its target T6, Her018P, Her2 ECD with a deletion in the CR2 (Domain IV) region expressed with a mIgG2a Fc tail (human; murine, UniProt P04626 23-599).
T6 construct: Shares the name HER018 with the trastuzumab SMIP; also called 1.8 (Dimer); dimeric HER018; not shown: murine IgG2a Fc tail (C-terminal dimerising carrier) and any junction residues
Briefly: ELISA, soluble scFv on Her018.
B1: the binding result is listed as “no binding”.

Regarding B2, the binding result was “binds”.

Turning to B3, the binding result is listed as “no binding”.

Take B4: the binding result is listed as “no binding”.

As to B5, the binding result is “no binding”.

B6: the binding result is reported as “no binding”.

On to B7, for which the binding result is “no binding”.

As for B8, the binding result was “binds”.

Take B10: the binding result was “binds”.

As to B9, the binding result was “binds”.

Consider B11, for which the binding result is “binds”.
